Patent publication US20240254254

B1: human TAP1 NBD comprising N676G, S677N, Q680R, E682Q and Q683R substitutions, substitutions of cysteines with serines (SEQ ID NO:10) and a C-terminal His tag (protein)
chain: GLLTPLHLEGLVQFQDVSFAYPNRPDVLVLQGLTFTLRPGEVTALVGPNGSGKSTVAALLQNLYQPTGGQLLLDGKPLPQYEHRYLHRQVAAVGQEPQVFGRSLQENIAYGLTQKPTMEEITAAAVKSGAHSFISGLPQGYDTEVDEAGSQLSGGQRQAVALARALIRKPSVLILDNATSALDAGNQLRVQRLLYESPERYSRSVLLITQHLSLVEQADHILFLEGGAIREGGTHQQLMEKKGSYWAMVQAPADAPE
B2: TAP1 NBD of SEQ ID NO:87 with a peptide comprising a SpyTag3, TEV protease site and a His tag attached at the C-terminus (protein)
chain: MPPSGLLTPLHLEGLVQFQDVSFAYPNRPDVLVLQGLTFTLRPGEVTALVGPNGSGKSTVAALLQNLYQPTGGQLLLDGKPLPQYEHRYLHRQVAAVGQEPQVFGRSLQENIAYGLTQKPTMEEITAAAVKSGAHSFISGLPQGYDTEVDEAGSQLSGGQRQAVALARALIRKPSVLILDNATSALDAGNQLRVQRLLYESPERYSRSVLLITQHLSLVEQADHILFLEGGAIREGGTHQQLMEKKGSYWAMVQAPADAPE

Tests used:
[1] = size exclusion chromatography in 1 mM ATP (dimer state)
[2] = size exclusion chromatography in 1 mM ADP (monomer state)
[3] = size exclusion chromatography (Superdex S200 Increase) in 1 mM ADP buffer
[4] = size exclusion chromatography (Superdex S200 Increase) in 1 mM ATP buffer

Protein | effective molecular weight (SEC) in 1 mM ATP [1] | effective molecular weight (SEC) in 1 mM ADP [2] | elution volume (SEC) in 1 mM ADP [3] | elution volume (SEC) in 1 mM ATP [4]
B1 | in the presence of ATP the protein chromatographs with an effective molecular weight of 57 kDa | in the presence of ADP the protein chromatographs with an effective molecular weight of 37 kDa |  | 
B2 |  |  | the ADP sample eluted at 16.81 ml | The ATP-containing sample eluted at a volume of 15.75 ml
